PMC8307404, “Crystal Structure-Guided Design of Bisubstrate Inhibitors and Photoluminescent Probes for Protein Kinases of the PIM Family” (Molecules, 2021)
Square brackets hold non-standard residues; d marks the D form. Peptide text beside a SMILES is read from it. * marks the point of attachment. X3 = O=C(CCCCCNCc1nc2c(sc3cc(Br)cnc32)c(=O)[nH]1)*

Assays:
Assay in all cases: Kinase profiling (radiometric filter-binding)
Assay type in all cases: biochemical
ERK2 = ERK2 (Homo sapiens, UniProt P28482); conditions: ERK2, 1 µM inhibitor; read-out: Residual activity, %
Chain of ERK2 (P28482 whole entry): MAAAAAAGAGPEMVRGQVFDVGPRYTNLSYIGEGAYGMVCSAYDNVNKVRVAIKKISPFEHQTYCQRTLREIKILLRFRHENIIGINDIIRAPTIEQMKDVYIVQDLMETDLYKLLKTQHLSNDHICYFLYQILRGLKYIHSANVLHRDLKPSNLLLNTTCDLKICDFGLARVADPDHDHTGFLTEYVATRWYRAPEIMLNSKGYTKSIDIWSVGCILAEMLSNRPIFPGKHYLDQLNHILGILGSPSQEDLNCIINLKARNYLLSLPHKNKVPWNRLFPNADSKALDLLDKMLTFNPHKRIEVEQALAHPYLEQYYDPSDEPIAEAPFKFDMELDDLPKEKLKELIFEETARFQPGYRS
How it was run: (§1)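 Screening format: radiometric, filter-based capture of phosphorylated substrate by human kinases. Conditions: ATP at/below KM, inhibitor 1 µM (final total). Output: remaining activity in percent of control.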

HIPK1 = HIPK1 (Homo sapiens, UniProt Q86Z02); conditions: HIPK1, 1 µM inhibitor; read-out: Residual activity, %
Chain of HIPK1 (Q86Z02 whole entry): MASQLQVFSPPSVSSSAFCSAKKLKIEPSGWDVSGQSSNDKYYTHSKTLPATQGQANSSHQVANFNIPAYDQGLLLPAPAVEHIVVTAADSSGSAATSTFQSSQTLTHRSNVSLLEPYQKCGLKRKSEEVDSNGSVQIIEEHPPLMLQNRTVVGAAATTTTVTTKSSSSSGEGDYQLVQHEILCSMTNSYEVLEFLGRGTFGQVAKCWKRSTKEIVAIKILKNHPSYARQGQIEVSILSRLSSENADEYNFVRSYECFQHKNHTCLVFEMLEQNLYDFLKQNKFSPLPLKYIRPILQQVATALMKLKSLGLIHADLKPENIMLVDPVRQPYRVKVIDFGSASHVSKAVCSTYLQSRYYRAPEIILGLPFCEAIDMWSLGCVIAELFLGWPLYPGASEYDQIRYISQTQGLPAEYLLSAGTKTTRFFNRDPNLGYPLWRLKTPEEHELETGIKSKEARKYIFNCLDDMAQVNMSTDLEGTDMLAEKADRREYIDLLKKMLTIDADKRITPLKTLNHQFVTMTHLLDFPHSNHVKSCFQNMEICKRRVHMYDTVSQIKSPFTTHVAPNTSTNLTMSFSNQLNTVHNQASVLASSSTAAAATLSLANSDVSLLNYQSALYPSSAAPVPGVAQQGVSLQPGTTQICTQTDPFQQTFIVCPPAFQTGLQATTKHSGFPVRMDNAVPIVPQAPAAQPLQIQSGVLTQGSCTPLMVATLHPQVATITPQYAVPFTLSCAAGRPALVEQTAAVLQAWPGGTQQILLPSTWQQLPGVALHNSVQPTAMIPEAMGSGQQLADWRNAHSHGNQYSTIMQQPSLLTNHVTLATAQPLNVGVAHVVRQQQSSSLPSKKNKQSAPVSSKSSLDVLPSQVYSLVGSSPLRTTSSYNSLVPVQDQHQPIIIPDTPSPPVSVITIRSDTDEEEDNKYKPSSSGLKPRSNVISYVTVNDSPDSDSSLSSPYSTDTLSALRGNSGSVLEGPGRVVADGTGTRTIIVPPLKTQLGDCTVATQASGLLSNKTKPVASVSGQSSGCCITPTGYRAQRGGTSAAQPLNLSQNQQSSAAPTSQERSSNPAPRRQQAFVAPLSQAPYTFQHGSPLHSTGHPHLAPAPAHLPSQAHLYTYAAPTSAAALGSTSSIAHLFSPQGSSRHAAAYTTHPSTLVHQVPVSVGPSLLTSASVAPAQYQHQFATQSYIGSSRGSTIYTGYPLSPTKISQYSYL
How it was run: as §1

HER4 = HER4 (Homo sapiens, UniProt Q15303); conditions: HER4, 1 µM inhibitor; read-out: Residual activity, %
Chain of HER4 (Q15303 26-1308): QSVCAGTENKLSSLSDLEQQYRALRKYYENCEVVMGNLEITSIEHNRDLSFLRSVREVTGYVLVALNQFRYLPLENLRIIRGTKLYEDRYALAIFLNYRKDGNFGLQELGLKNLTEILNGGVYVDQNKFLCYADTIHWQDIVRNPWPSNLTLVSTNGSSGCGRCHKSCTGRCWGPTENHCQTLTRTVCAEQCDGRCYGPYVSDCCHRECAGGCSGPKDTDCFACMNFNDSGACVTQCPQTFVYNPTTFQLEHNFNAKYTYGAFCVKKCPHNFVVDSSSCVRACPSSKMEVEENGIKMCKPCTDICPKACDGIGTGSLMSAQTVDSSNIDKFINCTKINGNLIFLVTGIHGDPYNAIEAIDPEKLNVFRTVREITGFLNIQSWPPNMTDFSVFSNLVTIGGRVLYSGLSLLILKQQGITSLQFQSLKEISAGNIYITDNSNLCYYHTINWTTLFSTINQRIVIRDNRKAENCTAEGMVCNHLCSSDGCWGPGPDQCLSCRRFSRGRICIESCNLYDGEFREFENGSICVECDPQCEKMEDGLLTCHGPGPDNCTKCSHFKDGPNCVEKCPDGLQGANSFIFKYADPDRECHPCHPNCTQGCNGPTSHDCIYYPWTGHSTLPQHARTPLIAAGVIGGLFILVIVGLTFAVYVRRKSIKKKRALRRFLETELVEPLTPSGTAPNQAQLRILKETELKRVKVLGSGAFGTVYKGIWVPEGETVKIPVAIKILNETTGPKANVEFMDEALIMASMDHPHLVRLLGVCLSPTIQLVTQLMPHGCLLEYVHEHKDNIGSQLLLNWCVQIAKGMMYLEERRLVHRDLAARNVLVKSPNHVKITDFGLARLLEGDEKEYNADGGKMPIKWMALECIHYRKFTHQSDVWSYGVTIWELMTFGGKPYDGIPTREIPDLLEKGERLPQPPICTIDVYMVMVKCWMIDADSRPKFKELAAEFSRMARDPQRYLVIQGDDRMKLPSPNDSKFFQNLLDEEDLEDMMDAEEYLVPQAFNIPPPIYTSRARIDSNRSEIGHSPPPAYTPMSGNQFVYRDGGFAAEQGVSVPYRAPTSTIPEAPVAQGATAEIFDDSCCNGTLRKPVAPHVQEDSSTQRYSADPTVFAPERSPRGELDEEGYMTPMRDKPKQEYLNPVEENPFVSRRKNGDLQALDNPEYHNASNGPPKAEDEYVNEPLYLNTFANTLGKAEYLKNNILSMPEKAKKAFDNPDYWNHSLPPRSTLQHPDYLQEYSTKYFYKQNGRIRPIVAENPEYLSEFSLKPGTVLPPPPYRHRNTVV
How it was run: as §1

PKD1 = target: T1, PKD1 (Homo sapiens, UniProt Q15139); conditions: PKD1, 1 µM inhibitor; read-out: Residual activity, %
T1 sequence (Q15139 1-912): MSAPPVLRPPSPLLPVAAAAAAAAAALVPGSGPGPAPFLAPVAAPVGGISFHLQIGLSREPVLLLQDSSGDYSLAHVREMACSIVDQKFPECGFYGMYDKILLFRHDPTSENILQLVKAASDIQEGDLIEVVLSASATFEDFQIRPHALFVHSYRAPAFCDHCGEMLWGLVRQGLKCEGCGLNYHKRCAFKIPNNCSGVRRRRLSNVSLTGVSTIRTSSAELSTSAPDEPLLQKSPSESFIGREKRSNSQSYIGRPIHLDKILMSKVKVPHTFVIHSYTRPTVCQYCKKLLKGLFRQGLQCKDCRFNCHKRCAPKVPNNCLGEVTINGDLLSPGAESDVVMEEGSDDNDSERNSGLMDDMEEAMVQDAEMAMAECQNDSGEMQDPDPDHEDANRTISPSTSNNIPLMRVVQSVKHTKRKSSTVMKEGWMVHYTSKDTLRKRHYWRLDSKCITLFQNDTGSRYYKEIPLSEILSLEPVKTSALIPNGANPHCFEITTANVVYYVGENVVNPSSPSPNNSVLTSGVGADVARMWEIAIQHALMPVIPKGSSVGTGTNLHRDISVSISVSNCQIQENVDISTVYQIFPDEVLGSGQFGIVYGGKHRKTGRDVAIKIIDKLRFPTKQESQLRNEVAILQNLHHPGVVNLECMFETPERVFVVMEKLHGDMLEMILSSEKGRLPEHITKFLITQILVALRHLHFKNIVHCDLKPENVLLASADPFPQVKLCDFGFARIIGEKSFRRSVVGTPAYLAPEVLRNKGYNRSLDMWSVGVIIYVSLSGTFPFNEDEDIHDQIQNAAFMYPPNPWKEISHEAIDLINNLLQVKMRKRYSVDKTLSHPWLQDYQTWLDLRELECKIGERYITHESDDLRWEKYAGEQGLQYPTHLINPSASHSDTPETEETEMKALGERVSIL
How it was run: as §1

SGK1 = target: T2, SGK1 (Homo sapiens, UniProt O00141); conditions: SGK1, 1 µM inhibitor; read-out: Residual activity, %
T2 sequence (O00141 1-431): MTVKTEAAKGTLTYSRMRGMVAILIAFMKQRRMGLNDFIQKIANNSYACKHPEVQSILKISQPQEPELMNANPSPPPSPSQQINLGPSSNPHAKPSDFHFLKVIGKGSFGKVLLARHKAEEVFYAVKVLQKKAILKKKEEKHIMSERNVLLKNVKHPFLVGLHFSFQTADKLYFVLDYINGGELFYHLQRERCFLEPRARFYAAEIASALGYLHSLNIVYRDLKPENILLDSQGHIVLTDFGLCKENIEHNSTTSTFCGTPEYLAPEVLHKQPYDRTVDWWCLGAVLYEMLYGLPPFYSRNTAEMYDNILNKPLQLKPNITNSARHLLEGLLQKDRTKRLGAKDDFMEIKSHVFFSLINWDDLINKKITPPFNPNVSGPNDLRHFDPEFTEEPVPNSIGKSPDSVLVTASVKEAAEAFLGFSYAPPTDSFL
How it was run: as §1

WNK1 = WNK1 (Homo sapiens, UniProt Q9H4A3); conditions: WNK1, 1 µM inhibitor; read-out: Residual activity, %
How it was run: as §1

IKK = target: T3, IKK (Homo sapiens, UniProt O14920); conditions: first of two IKK lines (Greek letter lost), 1 µM inhibitor, read-out: Residual activity, %
T3 sequence (O14920 1-756): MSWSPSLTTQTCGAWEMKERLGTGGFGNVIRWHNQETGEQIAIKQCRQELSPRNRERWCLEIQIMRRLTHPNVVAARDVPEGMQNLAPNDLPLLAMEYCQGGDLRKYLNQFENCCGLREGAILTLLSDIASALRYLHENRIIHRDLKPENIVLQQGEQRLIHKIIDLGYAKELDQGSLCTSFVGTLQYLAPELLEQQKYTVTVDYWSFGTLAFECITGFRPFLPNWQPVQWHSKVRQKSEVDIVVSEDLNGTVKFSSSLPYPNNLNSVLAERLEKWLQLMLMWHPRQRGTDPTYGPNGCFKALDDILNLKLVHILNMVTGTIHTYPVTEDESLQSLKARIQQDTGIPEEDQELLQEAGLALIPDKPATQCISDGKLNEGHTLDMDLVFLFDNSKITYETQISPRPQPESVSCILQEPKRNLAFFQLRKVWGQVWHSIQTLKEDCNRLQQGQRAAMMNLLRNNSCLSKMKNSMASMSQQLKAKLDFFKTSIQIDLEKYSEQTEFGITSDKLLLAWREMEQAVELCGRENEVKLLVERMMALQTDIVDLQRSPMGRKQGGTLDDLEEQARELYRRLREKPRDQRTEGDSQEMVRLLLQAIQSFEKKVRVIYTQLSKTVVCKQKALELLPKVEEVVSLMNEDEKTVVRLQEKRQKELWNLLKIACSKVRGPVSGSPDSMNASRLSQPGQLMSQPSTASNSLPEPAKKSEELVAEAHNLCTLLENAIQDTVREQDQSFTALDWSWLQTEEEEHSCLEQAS
How it was run: as §1

p38 MAPK = p38 MAPK (Homo sapiens, UniProt Q16539); conditions: first of four lines (Greek letter lost), 1 µM inhibitor, read-out: Residual activity, %
Chain of p38 MAPK (Q16539 whole entry): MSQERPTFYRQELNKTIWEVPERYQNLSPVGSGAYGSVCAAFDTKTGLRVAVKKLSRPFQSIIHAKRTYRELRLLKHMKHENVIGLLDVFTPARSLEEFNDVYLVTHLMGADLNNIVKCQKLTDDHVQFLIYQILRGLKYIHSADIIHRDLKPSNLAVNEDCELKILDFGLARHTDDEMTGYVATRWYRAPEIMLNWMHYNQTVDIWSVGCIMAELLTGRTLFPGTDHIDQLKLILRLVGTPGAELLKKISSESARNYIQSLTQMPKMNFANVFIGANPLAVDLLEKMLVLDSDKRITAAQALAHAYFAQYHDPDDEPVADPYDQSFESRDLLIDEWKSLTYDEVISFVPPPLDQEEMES
How it was run: as §1

JNK3 = JNK3 (Homo sapiens, UniProt P53779); conditions: JNK3, 1 µM inhibitor; read-out: Residual activity, %
Chain of JNK3 (P53779 whole entry): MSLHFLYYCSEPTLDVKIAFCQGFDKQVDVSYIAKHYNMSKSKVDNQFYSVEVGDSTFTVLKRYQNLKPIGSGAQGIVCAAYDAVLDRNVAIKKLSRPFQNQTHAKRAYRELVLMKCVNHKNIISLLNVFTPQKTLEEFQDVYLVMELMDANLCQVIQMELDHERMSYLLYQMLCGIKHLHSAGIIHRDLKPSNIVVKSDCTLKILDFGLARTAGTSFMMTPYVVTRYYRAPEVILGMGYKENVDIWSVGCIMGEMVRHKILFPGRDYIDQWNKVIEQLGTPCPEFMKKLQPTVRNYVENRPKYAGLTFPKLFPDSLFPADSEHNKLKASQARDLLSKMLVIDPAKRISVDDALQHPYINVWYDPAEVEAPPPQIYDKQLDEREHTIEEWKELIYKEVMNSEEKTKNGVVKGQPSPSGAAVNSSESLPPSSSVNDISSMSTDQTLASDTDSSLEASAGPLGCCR
How it was run: as §1

N=C(N)NCCC[C@@H](NC(=O)CCCCCNC(=O)Cn1cnc2c(I)c(I)c(I)c(I)c21)C(=O)N[C@H](CCCNC(=N)N)C(=O)N[C@H](CCCNC(=N)N)C(=O)N[C@H](CCCNC(=N)N)C(=O)N[C@H](CCCNC(=N)N)C(=O)N[C@H](CCCNC(=N)N)C(=O)N[C@H](CCCCN)C(N)=O [ARC-3125, TIBI-CH2-C(=O)-Ahx-(D-Arg)6-D-Lys-NH2]
remaining activity at 1 µM (ERK2): 161 ± 4% | remaining activity at 1 µM (HIPK1): 61 ± 1% | remaining activity at 1 µM (HER4): 120 ± 9% | remaining activity at 1 µM (PKD1): 18 ± 4% | remaining activity at 1 µM (SGK1): 9 ± 5% | remaining activity at 1 µM (WNK1): 105 ± 33% | remaining activity at 1 µM (IKK): 80 ± 1% | remaining activity at 1 µM (p38 MAPK): 53 ± 8% | remaining activity at 1 µM (JNK3): 120 ± 2%

N=C(N)NCCC[C@@H](NC(=O)CNC(=O)[C@@H](CCCNC(=N)N)NC(=O)[C@@H](CCCNC(=N)N)NC(=O)CCCCCCCNCc1nc2c(sc3cc(Br)cnc32)c(=O)[nH]1)C(=O)N[C@H](CCCCN)C(N)=O [Compound 1, BPTP-Aoc-(D-Arg)2-Gly-D-Arg-D-Lys-NH2]
remaining activity at 1 µM (ERK2): 101 ± 14% | remaining activity at 1 µM (HIPK1): 111 ± 9% | remaining activity at 1 µM (HER4): 111 ± 13% | remaining activity at 1 µM (PKD1): 128 ± 13% | remaining activity at 1 µM (SGK1): 110 ± 19% | remaining activity at 1 µM (WNK1): 96 ± 4% | remaining activity at 1 µM (IKK): 97% | remaining activity at 1 µM (p38 MAPK): 113 ± 10% | remaining activity at 1 µM (JNK3): 92%

N=C(N)NCCC[C@@H](NC(=O)CNC(=O)[C@@H](CCCNC(=N)N)NC(=O)[C@@H](CCCNC(=N)N)NC(=O)CCCCCCCNCc1nc2c(sc3ccc(Br)cc32)c(=O)[nH]1)C(=O)N[C@H](CCCCN)C(N)=O [Compound 2, BBTP-Aoc-(D-Arg)2-Gly-D-Arg-D-Lys-NH2]
remaining activity at 1 µM (ERK2): 102 ± 1% | remaining activity at 1 µM (HIPK1): 60 ± 12% | remaining activity at 1 µM (HER4): 114 ± 15% | remaining activity at 1 µM (PKD1): 134 ± 14% | remaining activity at 1 µM (SGK1): 89 ± 3% | remaining activity at 1 µM (WNK1): 93 ± 1% | remaining activity at 1 µM (IKK): 100 ± 11% | remaining activity at 1 µM (p38 MAPK): 116 ± 10% | remaining activity at 1 µM (JNK3): 108 ± 3%

N=C(N)NCCC[C@@H](NC(=O)CCCCCNCc1nc2c(sc3cc(Br)cnc32)c(=O)[nH]1)C(=O)N[C@H](CCCNC(=N)N)C(=O)N[C@H](CCCNC(=N)N)C(=O)N[C@H](CCCNC(=N)N)C(=O)N[C@H](CCCNC(=N)N)C(=O)N[C@H](CCCNC(=N)N)C(=O)N[C@H](CCCCN)C(N)=O [ARC-3126, BPTP-Ahx-(D-Arg)6-D-Lys-NH2] (X3-[dR][dR][dR][dR][dR][dR][dK]-NH2)
remaining activity at 1 µM (ERK2): 166 ± 1% | remaining activity at 1 µM (HIPK1): 95 ± 15% | remaining activity at 1 µM (HER4): 110 ± 5% | remaining activity at 1 µM (PKD1): 111 ± 10% | remaining activity at 1 µM (SGK1): 75 ± 9% | remaining activity at 1 µM (WNK1): 107 ± 34% | remaining activity at 1 µM (IKK): 104 ± 2% | remaining activity at 1 µM (p38 MAPK): 116 ± 4% | remaining activity at 1 µM (JNK3): 121 ± 5%

N=C(N)NCCC[C@@H](NC(=O)CNC(=O)[C@@H](CCCNC(=N)N)NC(=O)[C@@H](CCCNC(=N)N)NC(=O)Cn1cc(CNCc2nc3c(sc4ccc(Br)cc43)c(=O)[nH]2)nn1)C(=O)N[C@H](CCCCN)C(N)=O [Compound 3, BBTP-Amt-(D-Arg)2-Gly-D-Arg-D-Lys-NH2]
remaining activity at 1 µM (ERK2): 104 ± 5% | remaining activity at 1 µM (HIPK1): 60 ± 3% | remaining activity at 1 µM (HER4): 105 ± 8% | remaining activity at 1 µM (PKD1): 82 ± 3% | remaining activity at 1 µM (SGK1): 95 ± 4% | remaining activity at 1 µM (WNK1): 104 ± 6% | remaining activity at 1 µM (IKK): 90 ± 6% | remaining activity at 1 µM (p38 MAPK): 110 ± 7% | remaining activity at 1 µM (JNK3): 113 ± 22%
